Source: article PMC9988344 (mAbs, 2023)

Experiments:
cynomolgus monkey uPAR = cynomolgus monkey uPAR (Macaca fascicularis, UniProt Q9GK78); experiment: ELISA
[1] = molecular target: recombinant human soluble uPAR (suPAR) (human, UniProt Q03405, biotin (in the BLI experiments)); experiment: ELISA
[2] = molecular target: T1, human uPAR on the surface of MDA-MB-231 cells (Homo sapiens (endogenous, MDA-MB-231), UniProt Q03405); experiment: flow cytometry on cells
[3] = molecular target: T1, human uPAR on the surface of MDA-MB-231 …; experiment: cell-based or functional assay

cynomolgus monkey uPAR, sequence (Q9GK78 23-305): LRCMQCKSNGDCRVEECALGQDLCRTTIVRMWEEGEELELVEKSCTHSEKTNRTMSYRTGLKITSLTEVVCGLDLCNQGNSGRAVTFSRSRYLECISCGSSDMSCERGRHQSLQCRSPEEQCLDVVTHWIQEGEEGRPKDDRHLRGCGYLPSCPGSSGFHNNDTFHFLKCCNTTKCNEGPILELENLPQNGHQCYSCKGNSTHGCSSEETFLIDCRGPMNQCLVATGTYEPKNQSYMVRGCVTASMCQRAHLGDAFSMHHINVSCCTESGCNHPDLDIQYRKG
recombinant human soluble uPAR (suPAR), sequence (Q03405 23-305): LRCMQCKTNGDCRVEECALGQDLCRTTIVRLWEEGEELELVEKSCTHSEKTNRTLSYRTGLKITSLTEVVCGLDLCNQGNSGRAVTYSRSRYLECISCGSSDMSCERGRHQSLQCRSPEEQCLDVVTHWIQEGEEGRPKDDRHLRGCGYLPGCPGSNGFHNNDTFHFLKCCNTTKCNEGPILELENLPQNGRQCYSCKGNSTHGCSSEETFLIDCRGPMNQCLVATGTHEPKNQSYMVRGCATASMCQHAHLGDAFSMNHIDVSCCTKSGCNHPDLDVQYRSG
T1 sequence (Q03405 23-305): as above

EC50 (cynomolgus monkey uPAR)	EC50 [1]	EC50 [2]	ADCC against MDA-MB-231 cells with NK-92 MI CD16a effector cells, EC50 [3]	ADCC against MDA-MB-231 cells with NK-92 MI CD16a effector cells, Max% [3]	ADCC against MDA-MB-231 cells with human PBMCs, EC50 [3]	ADCC against MDA-MB-231 cells with human PBMCs, Max% [3]	Binder
0.27 nM	0.53 nM	0.92 nM	0.89 nM	28.2%	0.11 nM	47.4%	anti-uPAR recombinant antibody 3159 (mouse/human chimeric IgG1) (antibody, V domains shown) VH: QVTLKESGPGILQSSLTLSLTCSLSGFSLSTSGMGVSWIRQPSGKGLEWLAHIYWDDDKRYNPSLKTRLTISKDASRDQVFLKIISVDTADTGTYYCGRRVRNYFSGTSYWYFDVWGTGTTVTVSS VL: DVLMTQTPLSLSVSLGDQASISCRSSQNILHRTGNTYLEWYLQKPGQSPKLLIYKVSNRFSGVPDRFSGSGSGTDFTLKISRLEAEDLGVYYCFQGSYVPFTFGSGTKLEMK
0.15 nM	0.41 nM	0.69 nM	1.14 nM	18.8%	0.09 nM	57.5%	anti-uPAR recombinant antibody 8163 (mouse/human chimeric IgG1) (antibody, V domains shown) VH: EVQLVESGGGLVQPGESLTLSCDSNEFDFPSHDMSWVRKTPEKRLELVAAIDSDGGLTYYSNSRERRFIISRDNTKNTLYLQMRSLRSEDTALYYCARRRASYWYFDVWGTGTTVTVSS VL: DILLTQSPAILPVSPGERVSFSCRASQNIGTSIHWYQQRTNGSPRLLIKYASESISGIPSRFSGSGSGTDFTLSINGVESEDIGDYYCQQSNSWPTFGGGTKLEIK
0.18 nM	0.52 nM	2.07 nM	5.59 nM	27.2%	0.35 nM	52%	anti-uPAR recombinant antibody 11857 (mouse/human chimeric IgG1) (antibody, V domains shown) VH: EVQLRQSGPELVKPGASVKISCKASGYTFTDYYMNWVKQSHEKSLEWIGNINPNNGGTDYNQKFKGKATLTVDKSSSTAYMELRSLTSEDSAVYYCARSYGSRFPYWGLGTLVTVSA VL: DIQMTQTTSSLSASLGDRVTISCRASQDITNYLSWYQQKPDGTVKLLIFYTAVLQSGFPLRFSGSGSGADYSLTISNLEQEDFATYFCQQGHTLPWTFGGGTKLEIK
